Test results reported in US20230028476A1 (EVOTEC INTERNATIONAL, published 2023).
Read-outs that look alike come from different tables or passages of the source.

Experiments:
Assay in all cases: cell-based or functional assay
human CD40 [1] = target: T1, human CD40 (human, UniProt P25942 21-277)
[2] = target: human IFN receptor on HEK-Blue IFN-α/β cells (human)
human CD40 [3] = target: T1, human CD40; remark: listed apart in the source
[4] = target: human IFN receptor on HEK-Blue IFN-α/β cells (human); remark: listed apart in the source

T1 sequence (P25942 21-277): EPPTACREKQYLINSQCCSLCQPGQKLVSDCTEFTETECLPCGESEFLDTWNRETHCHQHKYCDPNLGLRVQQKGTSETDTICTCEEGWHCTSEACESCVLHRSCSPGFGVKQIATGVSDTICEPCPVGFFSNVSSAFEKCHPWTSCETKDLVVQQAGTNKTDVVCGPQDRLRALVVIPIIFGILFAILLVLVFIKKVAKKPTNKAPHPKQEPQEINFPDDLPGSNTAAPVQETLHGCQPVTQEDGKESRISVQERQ

| Binder | CD40 EC50 (HEK-Blue CD40L reporter cells) (human CD40 [1]) [µg/mL] | IFNβ EC50 (HEK-Blue IFN-α/β reporter cells) [2] [µg/mL] | IFNε EC50 (HEK-Blue IFN-α/β reporter cells) [2] [µg/mL] | CD40 EC50 (HEK-Blue CD40L reporter cells) (human CD40 [3]) [µg/mL] | IFNβ EC50 (HEK-Blue IFN-α/β reporter cells) [4] [µg/mL] |
| --- | --- | --- | --- | --- | --- |
| IFA1 (antibody, human IgG2, kappa) light: DIQMTQSPSSVSASVGDRVTITCRASQGIYSWLAWYQQKPGKAPNLLIYTASTLQSGVPSRFSGSGSGTDFTLTISSLQPEDFATYYCQQANIFPLTFGGGTKVEIKRTVAAPSVFIFPPSDEQLKSGTASVVCLLNNFYPREAKVQWKVDNALQSGNSQESVTEQDSKDSTYSLSSTLTLSKADYEKHKVYACEVTHQGLSSPVTKSFNRGECAEAAAKEAAAKAMSYNLLGFLQRSSNFQCQKLLWQLNGRLEYCLKDRMNFDIPEEIKQLQQFQKEDAALTIYEMLQNIFAIFRQDSSSTGWNETIVENLLANVYHQINHLKTVLEEKLEKEDFTRGKLMSSLHLKRYYGRILHYLKAKEYSHCAWTIVRVEILRNFYFINRLTGYLRN heavy: not shown | 0.0741 | 0.00164 |  |  |  |
| IFA49 (antibody, human IgG2, kappa) heavy: not shown light: DIQMTQSPSSVSASVGDRVTITCRASQGIYSWLAWYQQKPGKAPNLLIYTASTLQSGVPSRFSGSGSGTDFTLTISSLQPEDFATYYCQQANIFPLTFGGGTKVEIKRTVAAPSVFIFPPSDEQLKSGTASVVCLLNNFYPREAKVQWKVDNALQSGNSQESVTEQDSKDSTYSLSSTLTLSKADYEKHKVYACEVTHQGLSSPVTKSFNRGEC | 0.0658 |  | 0.0782 |  |  |
| IFA8 (antibody, human IgG2, kappa) heavy: not shown light: DIQMTQSPSSVSASVGDRVTITCRASQGIYSWLAWYQQKPGKAPNLLIYTASTLQSGVPSRFSGSGSGTDFTLTISSLQPEDFATYYCQQANIFPLTFGGGTKVEIKRTVAAPSVFIFPPSDEQLKSGTASVVCLLNNFYPREAKVQWKVDNALQSGNSQESVTEQDSKDSTYSLSSTLTLSKADYEKHKVYACEVTHQGLSSPVTKSFNRGEC | 0.0397 | 0.0029 |  |  |  |
| IFA11 (antibody, human IgG2, kappa) heavy: not shown light: DIQMTQSPSSVSASVGDRVTITCRASQGIYSWLAWYQQKPGKAPNLLIYTASTLQSGVPSRFSGSGSGTDFTLTISSLQPEDFATYYCQQANIFPLTFGGGTKVEIKRTVAAPSVFIFPPSDEQLKSGTASVVCLLNNFYPREAKVQWKVDNALQSGNSQESVTEQDSKDSTYSLSSTLTLSKADYEKHKVYACEVTHQGLSSPVTKSFNRGEC | 0.0428 | 0.00178 |  |  |  |
| IFA9 (antibody, human IgG2, kappa) heavy: not shown light: DIQMTQSPSSVSASVGDRVTITCRASQGIYSWLAWYQQKPGKAPNLLIYTASTLQSGVPSRFSGSGSGTDFTLTISSLQPEDFATYYCQQANIFPLTFGGGTKVEIKRTVAAPSVFIFPPSDEQLKSGTASVVCLLNNFYPREAKVQWKVDNALQSGNSQESVTEQDSKDSTYSLSSTLTLSKADYEKHKVYACEVTHQGLSSPVTKSFNRGEC | 0.0426 | 0.0007 |  |  |  |
| IFA13 (antibody, human IgG2, kappa) light: DIQMTQSPSSVSASVGDRVTITCRASQGIYSWLAWYQQKPGKAPNLLIYTASTLQSGVPSRFSGSGSGTDFTLTISSLQPEDFATYYCQQANIFPLTFGGGTKVEIKRTVAAPSVFIFPPSDEQLKSGTASVVCLLNNFYPREAKVQWKVDNALQSGNSQESVTEQDSKDSTYSLSSTLTLSKADYEKHKVYACEVTHQGLSSPVTKSFNRGECPAPAMSYNLLGFLQRSSNFQSQKLLWQLNGRLEYCLKDRMNFDIPEEIKQLQQFQKEDAALTIYEMLQNIFAIFRQDSSSTGWNETIVENLLANVYHQINHLKTVLEEKLEKEDFTRGKLMSSLHLKRYYGRILHYLKAKEYSHCAWTIVRVEILRNFYFINRLTGYLRN heavy: not shown | 0.192 | 0.0007 |  |  |  |

Further lines, results first:

| CD40 EC50 (HEK-Blue CD40L reporter cells) (human CD40 [1]) [µg/mL] | IFNβ EC50 (HEK-Blue IFN-α/β reporter cells) [2] [µg/mL] | IFNε EC50 (HEK-Blue IFN-α/β reporter cells) [2] [µg/mL] | CD40 EC50 (HEK-Blue CD40L reporter cells) (human CD40 [3]) [µg/mL] | IFNβ EC50 (HEK-Blue IFN-α/β reporter cells) [4] [µg/mL] | Binder |
| --- | --- | --- | --- | --- | --- |
| 0.182 | 0.00234 |  |  |  | IFA20 (antibody, human IgG2, kappa) light: DIQMTQSPSSVSASVGDRVTITCRASQGIYSWLAWYQQKPGKAPNLLIYTASTLQSGVPSRFSGSGSGTDFTLTISSLQPEDFATYYCQQANIFPLTFGGGTKVEIKRTVAAPSVFIFPPSDEQLKSGTASVVCLLNNFYPREAKVQWKVDNALQSGNSQESVTEQDSKDSTYSLSSTLTLSKADYEKHKVYACEVTHQGLSSPVTKSFNRGECAEAAAKEAAAKAAEAAAKEAAAKAMSYNLLGFLQRSSNFQSQKLLWQLNGRLEYCLKDRMNFDIPEEIKQLQQFQKEDAALTIYEMLQNIFAIFRQDSSSTGWNETIVENLLANVYHQINHLKTVLEEKLEKEDFTRGKLMSSLHLKRYYGRILHYLKAKEYSHCAWTIVRVEILRNFYFINRLTGYLRN heavy: not shown |
| 0.111 | 0.00014 |  |  |  | IFA2 (antibody, human IgG2, kappa) light: DIQMTQSPSSVSASVGDRVTITCRASQGIYSWLAWYQQKPGKAPNLLIYTASTLQSGVPSRFSGSGSGTDFTLTISSLQPEDFATYYCQQANIFPLTFGGGTKVEIKRTVAAPSVFIFPPSDEQLKSGTASVVCLLNNFYPREAKVQWKVDNALQSGNSQESVTEQDSKDSTYSLSSTLTLSKADYEKHKVYACEVTHQGLSSPVTKSFNRGECAEAAAKEAAAKAMSYNLLGFLQRSSNFQSQKLLWQLNGRLEYCLKDRMNFDIPEEIKQLQQFQKEDAALTIYEMLQNIFAIFRQDSSSTGWNETIVENLLANVYHQINHLKTVLEEKLEKEDFTRGKLMSSLHLKRYYGRILHYLKAKEYSHCAWTIVRVEILRNFYFINRLTGYLRN heavy: not shown |
| 0.0265 | 0.0045 |  |  |  | IFA10 (antibody, human IgG2, kappa) heavy: not shown light: DIQMTQSPSSVSASVGDRVTITCRASQGIYSWLAWYQQKPGKAPNLLIYTASTLQSGVPSRFSGSGSGTDFTLTISSLQPEDFATYYCQQANIFPLTFGGGTKVEIKRTVAAPSVFIFPPSDEQLKSGTASVVCLLNNFYPREAKVQWKVDNALQSGNSQESVTEQDSKDSTYSLSSTLTLSKADYEKHKVYACEVTHQGLSSPVTKSFNRGEC |
|  |  |  | 0.191 | 0.0103 | IFA106 (antibody, human IgG2, kappa) heavy: QVQLVESGGGVVQPGKSLRLSCAASGFTFSSNGIHWVRQAPGKGLEWVAVIWSDGSNKFYADSVKGRFTISRDNSKNTLYLQMNSLRAEDTAVYYCARASGSGSYYNFFDYWGQGTLVTVSSASTKGPSVFPLAPCSRSTSESTAALGCLVKDYFPEPVTVSWNSGALTSGVHTFPAVLQSSGLYSLSSVVTVPSSNFGTQTYTCNVDHKPSNTKVDKTVERKCCVECPPCPAPPVAGPSVFLFPPKPKDTLMISRTPEVTCVVVDVSHEDPEVQFNWYVDGVEVHNAKTKPREEQFNSTFRVVSVLTVVHQDWLNGKEYKCKVSNKGLPAPIEKTISKTKGQPREPQVYTLPPSREEMTKNQVSLTCLVKGFYPSDIAVEWESNGQPENNYKTTPPMLDSDGSFFLYSKLTVDKSRWQQGNVFSCSVMHEALHNHYTQKSLSLSPGPAPASYNLLGFLQRSSNFQCQKLLWQLNGRLEYCLKDRMNFDIPEEIKQLQQFQKEDAALTIYEMLQNIFAIFRQDSSSTGWNETIVENLLANVYHQINHLKTVLEEKLEKEDFTRGKLMSSLHLKRYYGRILHYLKAKEYSHCAWTIVRVEILRNFYFINRLTGYLRN light: not shown |
|  |  |  | 0.142 | 0.00203 | IFA107 (antibody, human IgG2, kappa) heavy: QVQLVESGGGVVQPGKSLRLSCAASGFTFSSNGIHWVRQAPGKGLEWVAVIWSDGSNKFYADSVKGRFTISRDNSKNTLYLQMNSLRAEDTAVYYCARASGSGSYYNFFDYWGQGTLVTVSSASTKGPSVFPLAPCSRSTSESTAALGCLVKDYFPEPVTVSWNSGALTSGVHTFPAVLQSSGLYSLSSVVTVPSSNFGTQTYTCNVDHKPSNTKVDKTVERKCCVECPPCPAPPVAGPSVFLFPPKPKDTLMISRTPEVTCVVVDVSHEDPEVQFNWYVDGVEVHNAKTKPREEQFNSTFRVVSVLTVVHQDWLNGKEYKCKVSNKGLPAPIEKTISKTKGQPREPQVYTLPPSREEMTKNQVSLTCLVKGFYPSDIAVEWESNGQPENNYKTTPPMLDSDGSFFLYSKLTVDKSRWQQGNVFSCSVMHEALHNHYTQKSLSLSPGPAPASYNLLGFLQRSSNFQSQKLLWQLNGRLEYCLKDRMNFDIPEEIKQLQQFQKEDAALTIYEMLQNIFAIFRQDSSSTGWNETIVENLLANVYHQINHLKTVLEEKLEKEDFTRGKLMSSLHLKRYYGRILHYLKAKEYSHCAWTIVRVEILRNFYFINRLTGYLRN light: not shown |
| 0.11 | 0.0013 |  |  |  | IFA19 (antibody, human IgG2, kappa) light: DIQMTQSPSSVSASVGDRVTITCRASQGIYSWLAWYQQKPGKAPNLLIYTASTLQSGVPSRFSGSGSGTDFTLTISSLQPEDFATYYCQQANIFPLTFGGGTKVEIKRTVAAPSVFIFPPSDEQLKSGTASVVCLLNNFYPREAKVQWKVDNALQSGNSQESVTEQDSKDSTYSLSSTLTLSKADYEKHKVYACEVTHQGLSSPVTKSFNRGECSGGTSGSTSGTGSMSYNLLGFLQRSSNFQSQKLLWQLNGRLEYCLKDRMNFDIPEEIKQLQQFQKEDAALTIYEMLQNIFAIFRQDSSSTGWNETIVENLLANVYHQINHLKTVLEEKLEKEDFTRGKLMSSLHLKRYYGRILHYLKAKEYSHCAWTIVRVEILRNFYFINRLTGYLRN heavy: not shown |
| 0.105 | 0.00364 |  |  |  | IFA12 (antibody, human IgG2, kappa) light: DIQMTQSPSSVSASVGDRVTITCRASQGIYSWLAWYQQKPGKAPNLLIYTASTLQSGVPSRFSGSGSGTDFTLTISSLQPEDFATYYCQQANIFPLTFGGGTKVEIKRTVAAPSVFIFPPSDEQLKSGTASVVCLLNNFYPREAKVQWKVDNALQSGNSQESVTEQDSKDSTYSLSSTLTLSKADYEKHKVYACEVTHQGLSSPVTKSFNRGECPAPAMSYNLLGFLQRSSNFQCQKLLWQLNGRLEYCLKDRMNFDIPEEIKQLQQFQKEDAALTIYEMLQNIFAIFRQDSSSTGWNETIVENLLANVYHQINHLKTVLEEKLEKEDFTRGKLMSSLHLKRYYGRILHYLKAKEYSHCAWTIVRVEILRNFYFINRLTGYLRN heavy: not shown |
